In patent US20170072062A1 (published 2017):
Ends that are not written are not given here. * marks the point of attachment. Methacryloyl = C=C(C)C(=O)*

T1: TRAP deposited by previous osteoclast activity on human cortical bone wafers (human, UniProt P13686 22-325, limits assumed)
T1 construct: The target is TRAP on a bone surface, not purified protein; The species follows from the human donor bone; also called bone resorption pits
T1 sequence (looked up): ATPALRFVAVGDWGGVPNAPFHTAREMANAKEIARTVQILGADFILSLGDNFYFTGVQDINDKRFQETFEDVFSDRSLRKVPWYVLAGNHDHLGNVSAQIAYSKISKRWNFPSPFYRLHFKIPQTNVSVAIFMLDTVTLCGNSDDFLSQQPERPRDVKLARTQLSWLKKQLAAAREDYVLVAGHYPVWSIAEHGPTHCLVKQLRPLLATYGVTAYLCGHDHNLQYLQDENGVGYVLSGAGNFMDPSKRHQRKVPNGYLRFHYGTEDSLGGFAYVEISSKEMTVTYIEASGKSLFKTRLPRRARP

B1: 10% TBP-functionalized polymer (pTBP), M:CTA:I 300:1:0.1, Mn 40.1 kDa (Table 4) (peptide)
peptide: Methacryloyl-TPLSYLKGLVTVG
modifications: not fully specified; also: RAFT copolymer with PEG methyl ether methacrylate, about 9 peptides per chain
B2: 5% TBP-functionalized PEG polymer, M:CTA:I 600:1:0.1, Mn 98.2 kDa (Table 4) (peptide)
peptide: Methacryloyl-TPLSYLKGLVTVG
modifications: not fully specified; also: RAFT copolymer with PEG methyl ether methacrylate, about 11 peptides per chain
B3: 20% TBP-functionalized PEG polymer, M:CTA:I 500:1:0.1, Mn 32.7 kDa (Table 4) (peptide)
peptide: Methacryloyl-TPLSYLKGLVTVG
modifications: not fully specified; also: RAFT copolymer with PEG methyl ether methacrylate, about 12 peptides per chain
B4: 5% TBP-functionalized PEG polymer, M:CTA:I 250:1:0.1, Mn 42.3 kDa (Table 4) (peptide)
peptide: Methacryloyl-TPLSYLKGLVTVG
modifications: not fully specified; also: RAFT copolymer with PEG methyl ether methacrylate, about 5 peptides per chain
B5: 5% TBP-functionalized PEG polymer, M:CTA:I 125:1:0.1, Mn 17.1 kDa (Table 4) (peptide)
peptide: Methacryloyl-TPLSYLKGLVTVG
modifications: not fully specified; also: RAFT copolymer with PEG methyl ether methacrylate, about 3 peptides per chain
B6: fluorescently labeled scrambled control peptide (SCP) (peptide)
peptide: VPVGTLSYLKLTG
modifications: also: fluorescent cadaverine coupled, site not given here
notes: also called fluorescently labeled SCP; Control (SCP)

Key:
[1] = molecular target: type V tartrate-resistant acid phosphatase (TRAP) protein, immobilised on CM5 sensor chip; assay: SPR, TRAP on CM5 chip, initial rate analysis of sensorgrams
[2] = molecular target: type V tartrate-resistant acid phosphatase (TRAP) protein, immobilised on CM5 sensor chip; assay: SPR, TRAP on CM5 chip, binding curve fit (n = 2, Ave. ± StDev)
[3] = molecular target: type V tartrate-resistant acid phosphatase (TRAP) protein, immobilised on CM5 sensor chip; assay: SPR, TRAP on CM5 chip; upper end of a range told of the peptide-functionalized polymers
[4] = molecular target: type V tartrate-resistant acid phosphatase (TRAP) protein, immobilised on CM5 sensor chip; assay: SPR, TRAP on CM5 chip, steady-state response vs concentration fit
[5] = molecular target: type V tartrate-resistant acid phosphatase (TRAP) protein, immobilised on CM5 sensor chip; assay: SPR, TRAP on CM5 chip, binding curve fit
[6] = molecular target: T1, TRAP deposited by previous osteoclast …; assay: confocal imaging of fluorescent peptide on human cortical bone wafers decorated with TRAP
Protocol: Equal concentrations of fluorescently labeled TBP and SCP are prepared in 1× phosphate-buffered saline (PBS). Bone wafers are cut from cortical bone obtained from the femur of a human donor cadaver and incubated in peptide solutions overnight, washed twice with 1×PBS, and then visualized via confocal imaging. Stacked sections are compressed into 2D images to allow for qualitative analysis as in FIG. 3A through FIG. 3D.

[7] = molecular target: type V tartrate-resistant acid phosphatase (TRAP) protein, immobilised on CM5 sensor chip; assay: SPR, TRAP on CM5 chip; lower end of a range told of the peptide-functionalized polymers

Kd [1]	Kd [2]	also measured	Binder
60 µM	–	–	B1
140 µM	–	–	B2
–	21.7 µM	Kd [3]: 7.1 to 21 µM	Methacryloyl-TPLSYLKGLVTVG (also: RAFT copolymer with PEG monomethyl ether methacrylate, multivalent) [5% peptide monomer TBP-functionalized PEG polymer (Table 1, Mn 103900 Da)]
70 µM	–	–	B3
80 µM	–	–	B4
–	12.7 µM	–	Methacryloyl-TPLSYLKGLVTVG (also: RAFT copolymer with PEG monomethyl ether methacrylate, multivalent) [10% peptide monomer TBP-functionalized PEG polymer (Table 1, Mn 69000 Da)]
70 µM	–	–	B5
–	795 µM	Kd [4]: 200 µM; Kd [5]: 700 µM	TPLSYLKGLVTVG [TRAP-binding peptide (TBP)]
–	–	binding result [6]: no binding	B6
–	7.5 µM	Kd [7]: 7.1 to 21 µM	Methacryloyl-TPLSYLKGLVTVG (also: RAFT copolymer with PEG monomethyl ether methacrylate, multivalent) [20% peptide monomer TBP-functionalized PEG polymer (Table 1, Mn 26700 Da)]
